Experimental data from the supplement of paper PMC10201428.
± gives the standard deviation of the averaged measurements.

Legend:
[1] = system: VchCAST RNA-guided transposition machinery (E. coli BL21(DE3) host, lacZ target); test: relative integration efficiency (T-RL orientation) vs wild-type transposon end (log2 (normalized fold change)); transposon end mutated: left end; higher = more efficient transposition
Outline: (§1)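 Pools of 1549 left-end or 1849 right-end barcoded transposon variants were cloned into a pUC57 mini-transposon donor and co-transformed into E. coli BL21(DE3) with a T7-driven effector plasmid carrying a CRISPR array, tniQ-cas8-cas7-cas6 and tnsA-tnsB-tnsC. Plating used 0.1 mM IPTG at 37°C for 18 h, and input plasmids and genomic integration junctions were PCR-amplified for Illumina sequencing, with two biological output replicates and four reference barcodes. Relative integration efficiency is the log-transformed fold change of output over input barcode abundance, normalised to the reference barcodes.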

[2] = system: VchCAST RNA-guided transposition machinery (E. coli BL21(DE3) host, lacZ target); test: relative integration efficiency (T-LR orientation) vs wild-type transposon end (log2 (normalized fold change)); transposon end mutated: left end; higher = more efficient transposition
Outline: as §1

Sequence	relative integration efficiency (log2) [1]	relative integration efficiency (log2) [2]
AATGTTGTTGATGCAACCATAAAGTGATATTTAATAATTATTTATAATCAGCAACTTAACCACACCCACCAACGCGCGGTCGCGAGACACCCCACCAACGCCTGGTCGCGGGGGTGTCCGATCTGATTTCAGCAAAACTACTGCAGTAAGAA	-6.25 ± 1.4	-3.59 ± 0.93
AATGTTGTTGATGCAACCATAAAGTGATATTTAATAATTATTTATAATCCTACCAGGCCAACACCCCACCAACGCGCGGTCGCGAGACACCCCACCAACGCCTGGTCGCGGGGGTGTCCGATCTGATTTCAGCAAAACTACTGCAGTAAGAA	-6.45 ± 1.8	-5.08 ± 3.7
AATGTTGTTGATGCAACCATACCTGTCGCGGGCCGCCGGCGGGCGCCGACTACCAGGCCAACACCCCACCAACGCGCGGTCGCGAGACACCCCACCAACGCCTGGTCGCGGGGGTGTCCGATCTGATTTCAGCAAAACTACTGCAGTAAGAA	< -10	< -10
AATGTTGTTGATGCAACCATAAAGTGATATTTAATAATTATTTATAATCAGCAACTTAACCACAAAACAACCATATATTGATATCTCACAAAACAACCATAAGTTGATATGGGGTGTCCGATCTGATTTCAGCAAAACTACTGCAGTAAGAA	-0.33 ± 0.14	-0.611 ± 0.81
AATGTTGTTGATGCAACCATAAAGTGATATTTAATACAACCATATATTGATATCTCACAAAACAACCATAAGTTGATATTTTTGTGAATCGAGTATTTCAGCAAAACTACTGCAGTAAGAAAGTTACTTCGTGGTATGGGAGGATCAAGGAG	-4.83 ± 1.7	-2.15 ± 1.6
AATGTTGTTGATGCAACCATAAAGTGATATTTAATAATTATTTATAATCAGCAACTTAACCACAAAACACCCATAAATTGATATTGCACAAAAGTTGGTATTCAACTATAAAATGTGAATCGAGTATTTCAGCAAAACTACTGCAGTAAGAA	-3.12 ± 1	-0.929 ± 1.3
AATGTTGTTGATGCAACCATAAAGTGATATTTAATAATTATTTATACGACTACCAGGCCAACACCCCACCAACGCGCGGTCGCGAGACACCCCACCAACGCCTGGTCGCGGGGGTGTCCGATCTGATTTCAGCAAAACTACTGCAGTAAGAA	-6.45 ± 1.3	-4.47 ± 0.46
AATGTTGTTGATGCAACCATAAAGTGATATTTAATAATTATTTATAATCAGCAACTTAACACACCCCACCAACGCGCGGTCGCGAGACACCCCACCAACGCCTGGTCGCGGGGGTGTCCGATCTGATTTCAGCAAAACTACTGCAGTAAGAA	-5.82 ± 1.5	-3.16 ± 0.77
AATGTTGTTGATGCAACCATAAAGTGATATTTAATCAACCATATATTGATATCTCAATTATTTATAATCAGCAACTTAACCACAAAAACAAAACAACCATAAGTTGATATTTTTGTGAATCGAGTATTTCAGCAAAACTACTGCAGTAAGAA	-2.99 ± 0.87	-0.334 ± 1.6
AATGTTGTTGATGCAACCATAAAGTGATATTTAATAATTATTTATAATCAGCAACTTAACCACAAAACAACCATATATTGATATCTCACCAACCATAAGTTGATATTTTTGTGAATCGAGTATTTCAGCAAAACTACTGCAGTAAGAAAGTT	-3.37 ± 0.94	-2.01 ± 2.7
AATGTTGTTGATGCAACCATAAAATGATAATTAATAATTATTTATAATCAGCAACTTAACCACAAAACACCCATAAATTGATAATTAACAAAAGTTGGTATTCAACTATAAAATGTGAATCGAGTATTTCAGCAAAACTACTGCAGTAAGAA	-2.02 ± 1.1	-0.121 ± 0.44
AATGTTGTTGATGCAACCATAAAGTGATATTTACCGACTGTCTGCCATCCGCCGCTGAACCGCAGCCCAACCATATATTGATATCTCACAAAACAACCATAAGTTGATATTTTTGTGAATCGAGTATTTCAGCAAAACTACTGCAGTAAGAA	-2.98 ± 0.99	-3.04 ± 1.6
AATGTTGTTGATGCAACCATAAAGTGATATTTAATAATTATTTATAATCACAACCATATATTGATATCTCACAAAACAACCATAAGTTGATATTTTTGTGAATCGAGTATTTCAGCAAAACTACTGCAGTAAGAAAGTTACTTCGTGGTATG	-8.21 ± 0.54	-5.27 ± 1
AATGTTGTTGATGCACCCATAAATTGATAATTAATAATTATTTATAATCAGCAACTTAACCACAAAACAACCATATATTGATATCTCACAAAAGTTGGTATTCAACTATAAAATGTGAATCGAGTATTTCAGCAAAACTACTGCAGTAAGAA	-2.76 ± 1.1	-1.82 ± 1.9
AATGTTGTTGATGCAACCATAAAGTGATATTTAATAATTATTTATAATCAGCAACTTAACCACAAAACAACCATATATTGATATCGACACCCCACCAACGCCTGGTCGCGGGGGTGTCCGATCTGATTTCAGCAAAACTACTGCAGTAAGAA	-2.44 ± 0.91	-1.19 ± 2
AATGTTGTTGATGCAACCATAAAGTGATATTTAATAATGCGGGCGCCGACTACCAGGCCAACACCCCACCAACGCGCGGTCGCGAGACACCCCACCAACGCCTGGTCGCGGGGGTGTCCGATCTGATTTCAGCAAAACTACTGCAGTAAGAA	-7.04 ± 1.2	-5.9 ± 3.3
